Test results: PMC6399291
One block for each substance: values may come before it.

What was measured:
[1] = target: 14-3-3β (UniProt P31946); assay: GFP-14-3-3β IP, anti-myc blot; conditions: reference: wild type; sites S351,S377
[2] = target: CDK4 (UniProt P11802); assay: reciprocal co-IP, anti-GFP or anti-CDK4; conditions: reference: wild type; sites S351,S377
[3] = target: CDK4 (UniProt P11802); assay: glutathione-bead pull-down from co-transfected cells, anti-Flag blot; conditions: sites S351,S377

Sequence of UniProt P11802 (P11802 whole entry, looked up): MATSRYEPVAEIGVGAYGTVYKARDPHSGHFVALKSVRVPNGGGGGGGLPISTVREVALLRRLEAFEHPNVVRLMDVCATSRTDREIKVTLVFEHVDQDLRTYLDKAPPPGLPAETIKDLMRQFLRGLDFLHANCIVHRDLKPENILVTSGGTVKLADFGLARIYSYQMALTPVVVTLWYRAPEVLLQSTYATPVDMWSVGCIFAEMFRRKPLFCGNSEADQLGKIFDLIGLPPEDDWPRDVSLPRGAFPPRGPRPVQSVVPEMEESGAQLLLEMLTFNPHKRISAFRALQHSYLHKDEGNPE
Sequence of UniProt P31946 (P31946 whole entry, looked up): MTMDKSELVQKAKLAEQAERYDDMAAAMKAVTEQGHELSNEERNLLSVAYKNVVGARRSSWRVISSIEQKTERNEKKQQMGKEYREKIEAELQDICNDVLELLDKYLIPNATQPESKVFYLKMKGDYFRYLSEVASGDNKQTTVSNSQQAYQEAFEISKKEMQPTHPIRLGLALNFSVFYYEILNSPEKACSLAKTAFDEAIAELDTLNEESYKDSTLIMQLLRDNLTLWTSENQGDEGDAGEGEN

- binding against the reference [1]: weaker
Substance: PIKE-A (from UniProt Q99490-2) S351/377A (SA)

- binding against the reference [2]: weaker
Substance: PIKE-A (from UniProt Q99490-2) SA

- binding against the reference ([3]; reference: wild type + myc-AMPKα T172A): weaker
Substance: PIKE-A (from UniProt Q99490-2) SA + myc-AMPKα T172A

- binding against the reference ([3]; reference: wild type + myc-AMPKα T172D): weaker
Substance: PIKE-A (from UniProt Q99490-2) SA + myc-AMPKα T172D
